The values below are quoted from earlier work in patent US20250282866A1, “TREATMENT OF DISEASES RELATED TO ATP-BINDING CASSETTE TRANSPORTER 1 DYSFUNCTION USING TREM2 AGONISTS” (VIGIL NEUROSCIENCE, INC., priority 2020, published 2025).

Changes are numbered by the printed parent chain. Numbers in names are those of the source.

The labels stand for the following.
T1: human TREM2 (Homo sapiens, UniProt Q9NZC2)
T1 sequence (Q9NZC2 19-230): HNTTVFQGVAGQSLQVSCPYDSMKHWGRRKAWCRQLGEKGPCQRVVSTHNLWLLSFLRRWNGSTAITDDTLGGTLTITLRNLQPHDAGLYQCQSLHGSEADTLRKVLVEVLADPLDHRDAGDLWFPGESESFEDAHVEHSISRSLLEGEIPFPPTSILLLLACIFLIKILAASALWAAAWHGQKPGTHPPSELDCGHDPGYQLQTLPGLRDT

B1: V13: 6E7 variant: VH T30G, P62A, Q99G; VL N56G, F94M (antibody, V domains shown)
VH: EVQLVQSGAEVKKPGESLKISCKGSGYSFGSYWIAWVRQMPGKGLEWMGIIYPGDSDTRYSASFQGQVTISADKSISTAYLQWSSLKASDTAMYFCARGRTFYYDSSDYFDYWGQGTLVTVSS
VL: DIQMTQSPSSVSASVGDRVTITCRASQGISSWLAWYQQKPGKAPKLLIYAASSLQGGVPSRFSGSGSGTDFTLTISSLQPEDFATYFCQQADSMPRTFGQGTKLEIK
B2: V37: 6E7 variant: VH F29H, Q65A, Q99S; VL N56W, F94Y (antibody, V domains shown)
VH: B1 VH with F29H, G30T, A62P, Q65A, G99S
VL: B1 VL with G56W, M94Y
B3: V28: 6E7 variant: VH T30Q, I50T, Y103F; VL N56S, F94L (antibody, V domains shown)
VH: B1 VH with G30Q, I50T, A62P, G99Q, Y103F
VL: B1 VL with G56S, M94L
B4: V24: 6E7 variant: VH T58V, Q99S; VL N56K, R96H (antibody, V domains shown)
VH: B1 VH with G30T, T58V, A62P, G99S
VL: B1 VL with G56K, M94F, R96H
B5: V15: 6E7 variant: VH T30A, I50T, Q99S; VL S53W, F94Y (antibody, V domains shown)
VH: B1 VH with G30A, I50T, A62P, G99S
VL: B1 VL with S53W, G56N, M94Y
B6: V17: 6E7 variant: VH T30G, Q99S; VL L54R, F94S (antibody, V domains shown)
VH: B1 VH with A62P, G99S
VL: B1 VL with L54R, G56N, M94S
B7: V14: 6E7 variant: VH T30G, S56Q, Q99G; VL S53R (antibody, V domains shown)
VH: B1 VH with S56Q, A62P
VL: B1 VL with S53R, G56N, M94F
B8: V16: 6E7 variant: VH F29M, S56G, Q99S; VL S53N (antibody, V domains shown)
VH: B1 VH with F29M, G30T, S56G, A62P, G99S
VL: B1 VL with S53N, G56N, M94F
B9: V25: 6E7 variant: VH T30G, I50L, Q99S; VL Q55A, F94M (antibody, V domains shown)
VH: B1 VH with I50L, A62P, G99S
VL: B1 VL with Q55A, G56N
B10: V27: 6E7 variant: VH S61A, Q99S; VL N56R (antibody, V domains shown)
VH: B1 VH with G30T, S61A, A62P, A97V, G99S
VL: B1 VL with G56R, M94F
B11: V36: 6E7 variant: VH I34L, Q99S; VL L54R, F94Y (antibody, V domains shown)
VH: B1 VH with G30T, I34L, A62P, G99S
VL: B1 VL with L54R, G56N, M94Y
B12: V48: 6E7 variant: VH T30G, T58V, Q99M; VL N56T, F94L (antibody, V domains shown)
VH: B1 VH with T58V, A62P, G99M
VL: B1 VL with G56T, M94L
B13: V39: 6E7 variant: VH T30G, S61N, Q99G; VL Q55V, F94S (antibody, V domains shown)
VH: B1 VH with S61N, A62P
VL: B1 VL with Q55V, G56N, M94S
B14: V26: 6E7 variant: VH A35G, I50T, F102M, Y112A; VL N56R, F94Y (antibody, V domains shown)
VH: B1 VH with G30T, A35G, I50T, A62P, G99Q, F102M, Y112A
VL: B1 VL with G56R, M94Y
B15: V38: 6E7 variant: VH T30G, T58V; VL L54R, F94H (antibody, V domains shown)
VH: B1 VH with T58V, A62P, G99Q
VL: B1 VL with L54R, G56N, M94H
B16: V49: 6E7 variant: VH T30N, I50T, Y60L, Q99S; VL L54R, F94Y (antibody, V domains shown)
VH: B1 VH with G30N, I50T, Y60L, A62P, G99S
VL: B1 VL with L54R, G56N, M94Y
B17: V40: 6E7 variant: VH T30G, T58V, F110S; VL N56L, S93R (antibody, V domains shown)
VH: B1 VH with T58V, A62P, G99Q, F110S
VL: B1 VL with G56L, S93R, M94F

For the first data set, the target named is T1, human TREM2. Particulars: 1st screen; values printed without asterisk; concentration 110 nM or 10 nM (footnote a not given).
On to B1, for which the “Binding Signal (fold over 6E7 Parental antibody) 1st screen 110 nM or 10 nM” value is reported as 1.31 fold over 6E7 Parental antibod.

For B2, the “Binding Signal (fold over 6E7 Parental antibody) 1st screen 110 nM or 10 nM” value was 3.46 fold over 6E7 Parental antibod.

Regarding B3, the “Binding Signal (fold over 6E7 Parental antibody) 1st screen 110 nM or 10 nM” value was 3.08 fold over 6E7 Parental antibod.

As for B4, the “Binding Signal (fold over 6E7 Parental antibody) 1st screen 110 nM or 10 nM” value is 2.64 fold over 6E7 Parental antibod.

Take B5: the “Binding Signal (fold over 6E7 Parental antibody) 1st screen 110 nM or 10 nM” value is on record as 5.23 fold over 6E7 Parental antibod.

For the molecule B6, the “Binding Signal (fold over 6E7 Parental antibody) 1st screen 110 nM or 10 nM” value is 5.37 fold over 6E7 Parental antibod.

For the molecule B7, the “Binding Signal (fold over 6E7 Parental antibody) 1st screen 110 nM or 10 nM” value is listed as 4.71 fold over 6E7 Parental antibod.

As for B8, the “Binding Signal (fold over 6E7 Parental antibody) 1st screen 110 nM or 10 nM” value is 4.01 fold over 6E7 Parental antibod.

As for B9, the “Binding Signal (fold over 6E7 Parental antibody) 1st screen 110 nM or 10 nM” value is recorded as 4.23 fold over 6E7 Parental antibod.

With B10, the “Binding Signal (fold over 6E7 Parental antibody) 1st screen 110 nM or 10 nM” value is reported as 5.50 fold over 6E7 Parental antibod.

As to B11, the “Binding Signal (fold over 6E7 Parental antibody) 1st screen 110 nM or 10 nM” value is 3.38 fold over 6E7 Parental antibod.

Take B12: the “Binding Signal (fold over 6E7 Parental antibody) 1st screen 110 nM or 10 nM” value was 2.42 fold over 6E7 Parental antibod.

Regarding B13, the “Binding Signal (fold over 6E7 Parental antibody) 1st screen 110 nM or 10 nM” value is given as 6.15 fold over 6E7 Parental antibod.

B14: the “Binding Signal (fold over 6E7 Parental antibody) 1st screen 110 nM or 10 nM” value is recorded as 3.57 fold over 6E7 Parental antibod.

Regarding B15, the “Binding Signal (fold over 6E7 Parental antibody) 1st screen 110 nM or 10 nM” value was 4.34 fold over 6E7 Parental antibod.

On to B16, for which the “Binding Signal (fold over 6E7 Parental antibody) 1st screen 110 nM or 10 nM” value is reported as 6.51 fold over 6E7 Parental antibod.

For the molecule B17, the “Binding Signal (fold over 6E7 Parental antibody) 1st screen 110 nM or 10 nM” value is listed as 4.48 fold over 6E7 Parental antibod.

The data set is the same for the next values; noted with them: 2nd screen, 2 nM.
B1: the “Binding Signal (fold over 6E7 Parental antibody) 2nd screen 2 nM” value is on record as 1.15 fold over 6E7 Parental antibod.

Regarding B2, the “Binding Signal (fold over 6E7 Parental antibody) 2nd screen 2 nM” value is 3.69 fold over 6E7 Parental antibod.

Take B3: the “Binding Signal (fold over 6E7 Parental antibody) 2nd screen 2 nM” value is given as 2.63 fold over 6E7 Parental antibod.

For the molecule B4, the “Binding Signal (fold over 6E7 Parental antibody) 2nd screen 2 nM” value was 1.42 fold over 6E7 Parental antibod.

Regarding B5, the “Binding Signal (fold over 6E7 Parental antibody) 2nd screen 2 nM” value is reported as 4.72 fold over 6E7 Parental antibod.

As for B6, the “Binding Signal (fold over 6E7 Parental antibody) 2nd screen 2 nM” value is recorded as 4.22 fold over 6E7 Parental antibod.

With B7, the “Binding Signal (fold over 6E7 Parental antibody) 2nd screen 2 nM” value is listed as 2.57 fold over 6E7 Parental antibod.

B8: the “Binding Signal (fold over 6E7 Parental antibody) 2nd screen 2 nM” value was 3.57 fold over 6E7 Parental antibod.

B9: the “Binding Signal (fold over 6E7 Parental antibody) 2nd screen 2 nM” value is given as 3.15 fold over 6E7 Parental antibod.

In the case of B10, the “Binding Signal (fold over 6E7 Parental antibody) 2nd screen 2 nM” value is reported as 5.67 fold over 6E7 Parental antibod.

In the case of B11, the “Binding Signal (fold over 6E7 Parental antibody) 2nd screen 2 nM” value is reported as 4.00 fold over 6E7 Parental antibod.

Consider B12, for which the “Binding Signal (fold over 6E7 Parental antibody) 2nd screen 2 nM” value was 2.30 fold over 6E7 Parental antibod.

As to B13, the “Binding Signal (fold over 6E7 Parental antibody) 2nd screen 2 nM” value is 5.11 fold over 6E7 Parental antibod.

B14: the “Binding Signal (fold over 6E7 Parental antibody) 2nd screen 2 nM” value is 2.83 fold over 6E7 Parental antibod.

As to B15, the “Binding Signal (fold over 6E7 Parental antibody) 2nd screen 2 nM” value was 3.44 fold over 6E7 Parental antibod.

In the case of B16, the “Binding Signal (fold over 6E7 Parental antibody) 2nd screen 2 nM” value is listed as 5.02 fold over 6E7 Parental antibod.

As to B17, the “Binding Signal (fold over 6E7 Parental antibody) 2nd screen 2 nM” value was 3.41 fold over 6E7 Parental antibod.

The data set is the same for the next values; noted with them: 2nd screen, 10 nM.
On to B1, for which the “Binding Signal (fold over 6E7 Parental antibody) 2nd screen 10 nM” value was 1.35 fold over 6E7 Parental antibod.

Regarding B2, the “Binding Signal (fold over 6E7 Parental antibody) 2nd screen 10 nM” value is 3.49 fold over 6E7 Parental antibod.

Consider B3, for which the “Binding Signal (fold over 6E7 Parental antibody) 2nd screen 10 nM” value is reported as 3.61 fold over 6E7 Parental antibod.

Turning to B4, the “Binding Signal (fold over 6E7 Parental antibody) 2nd screen 10 nM” value is recorded as 2.90 fold over 6E7 Parental antibod.

Regarding B5, the “Binding Signal (fold over 6E7 Parental antibody) 2nd screen 10 nM” value was 4.78 fold over 6E7 Parental antibod.

For B6, the “Binding Signal (fold over 6E7 Parental antibody) 2nd screen 10 nM” value was 5.51 fold over 6E7 Parental antibod.

As to B7, the “Binding Signal (fold over 6E7 Parental antibody) 2nd screen 10 nM” value was 4.64 fold over 6E7 Parental antibod.

Consider B8, for which the “Binding Signal (fold over 6E7 Parental antibody) 2nd screen 10 nM” value is 4.04 fold over 6E7 Parental antibod.

Regarding B9, the “Binding Signal (fold over 6E7 Parental antibody) 2nd screen 10 nM” value was 4.70 fold over 6E7 Parental antibod.

On to B10, for which the “Binding Signal (fold over 6E7 Parental antibody) 2nd screen 10 nM” value is given as 5.69 fold over 6E7 Parental antibod.

For B11, the “Binding Signal (fold over 6E7 Parental antibody) 2nd screen 10 nM” value is listed as 3.44 fold over 6E7 Parental antibod.

Turning to B12, the “Binding Signal (fold over 6E7 Parental antibody) 2nd screen 10 nM” value is recorded as 2.54 fold over 6E7 Parental antibod.

Regarding B13, the “Binding Signal (fold over 6E7 Parental antibody) 2nd screen 10 nM” value is on record as 5.81 fold over 6E7 Parental antibod.

For B14, the “Binding Signal (fold over 6E7 Parental antibody) 2nd screen 10 nM” value is given as 3.47 fold over 6E7 Parental antibod.

Consider B15, for which the “Binding Signal (fold over 6E7 Parental antibody) 2nd screen 10 nM” value was 4.36 fold over 6E7 Parental antibod.

Regarding B16, the “Binding Signal (fold over 6E7 Parental antibody) 2nd screen 10 nM” value is 6.58 fold over 6E7 Parental antibod.

Turning to B17, the “Binding Signal (fold over 6E7 Parental antibody) 2nd screen 10 nM” value is given as 4.16 fold over 6E7 Parental antibod.
